Substrate in this data set: N
Kind of data set: cells, lysate or membranes. Conditions: labelled compound; (15NH4)2SO4 (60% 15N), 10 min; N-starved 3 d; qko background subtracted; whole-root uptake.

B1: ScAMT2;1 (Saccharum hybrid cultivar SP80-3280) (protein)
chain: MAASGGAYAAQLPAVPEWLNKGDNAWQLTAATLVGIQSMPGLVVLYGSIVKKKWAVNSAFMALYAYASSLLVWVLVGFRMAFGERLLPFWGKAGVALSQGYLVRRASLSATAHGDTPRTEPLYPEATLVLFQFEFAAITLVLLAGSVLGRMNIKAWMAFTPLWLLFSYTVGAFSLWGGGFLYHWGVIDYSGGYVIHLSSGVAGFTAAYWVGPRLKSDRERFSPNNILLMIAGGGLLWMGWAGFNGGAPYAANIAASVAVLNTNVSAATSLLTWTCLDVIFFNKPSVIGAVQGMMTGLVCITPGAGLVQTWAAVIMGVFAGSVPWFTMMILHKKSALLMKVDDTLAVFHTHAVAGLLGGVLTGLLATPELLEIESPVPGLRGAFYGGGAQQVGKQLAGAAFVVAWNVAVTSLILFAIGLLVPLRMPDDQLMIGDDAAHGEEAYALWGDGEKFDATRHDLAARVGGGGMMDREGSADQRMSGMGARGVTIQL
As for B1, the Km is given as 90.17 µM.

As a reminder, the Km is the substrate concentration at which the rate is half of its maximum.

Source of the values: article PMC9716016.
